Source: patent publication US20240009241A1 (published 2024)

T1: EGFR L858R peptide on HLA-A*33:01 (human)
T1 peptide: HVKITDFGR

T2: EGFR L858R peptide on HLA-A*33:03 (human)
T2 peptide: HVKITDFGR


Assays:
[1] = biological target: T1, EGFR L858R peptide on HLA-A*33:01; assay: killing
[2] = biological target: T2, EGFR L858R peptide on HLA-A*33:03; assay: multimer staining

Row | Binder | binding result [1] | binding result [2]
1 | EGFRA33 TCRA33-32H (TCR, V domains shown) Valpha: QKITQTQPGMFVQEKEAVTLDCTYDTSDQSYGLFWYKQPSSGEMIFLIYQGSYDEQNATEGRYSLNFQKARKSANLVISASQLGDSAMYFCAMREVFGNEKLTFGTGTRLTIIP Vbeta: EEVAQTPKHLVRGEGQKAKLYCAPIKGHSYVFWYQQVLKNEFKFLISFQNENVFDETGMPKERFSAKCLPNSPCSLEIQATKLEDSAVYFCASSPPPSNTYNEQFFGPGTRLTVL | recognises | recognises
2 | EGFRA33 TCRA33-37-3 (TCR, V domains shown) Valpha: AQKITQTQPGMFVQEKEAVTLDCTYDTSDQSYGLFWYKQPSSGEMIFLIYQGSYDEQNATEGRYSLNFQKARKSANLVISASQLGDSAMYFCAMREVFGNEKLTFGTGTRLTIIP Vbeta: EEVAQTPKHLVRGEGQKAKLYCAPIKGHSYVFWYQQVLKNEFKFLISFQNENVFDETGMPKGRFSAKCLPNSPCSLEIQATKLEDSAVYFCASSHRSWKGGDTQPQHFGDGTRLSIL |  | recognises
3 | EGFRA33 TCRA33-37-4 (TCR, V domains shown) Valpha: AQKITQTQPGMFVQEKEAVTLDCTYDTSDPSYGLFWYKQPSSGEMIFLIYQGSYDQQNATEGRYSLNFQKARKSANLVISASQLGDSAMYFCAMRSGHLSNFGNEKLTFGTGTRLTIIP Vbeta: EEVAQTPKHLVRGEGQKAKLYCAPIKGHSYVFWYQQVLKNEFKFLISFQNENVFDETGMPKGRFSAKCLPNSPCSLEIQATKLEDSAVYFCASSHRSWKGGDTQPQHFGDGTRLSIL |  | recognises
4 | EGFRA33 TCR33-32L (TCR, V domains shown) Valpha: not shown Vbeta: GVIQSPRHEVTEMGQEVTLRCKPISGHNSLFWYRQTMMRGLELLIYFNNNVPIDDSGMPEDRFSAKMPNASFSTLKIQPSEPRDSAVYFCASRAGTGEVNEQFFGPGTRLTVL |  | recognises
